In patent US20170008955A1 (CNJ, published 2017):
Substitutions are numbered along the chain they refer to.

B1: hu5E3-IgG1 (antibody, V domains shown)
VH: QVQLQQSGPEVKKPGASVKISCKASGYIFTSYYIQWVIHAPGQGLEWIGWIYPGNVNTKYNEKFKGKATLTADKSSSTAYMELSSLTSEDTAVYFCARMDYEAHYWGQGTTVTVSS
VL: DIQMTQSPSSLSASVGDRVTITCRASQEISGYLTWLQQKPEGAIKRLIYAASTLDSGVPKRFSGSRSGSDYSLTISSLQPEDFATYNCLQYANYPRTFGGGTKLEIK
notes: human IgG1/kappa; also called humanized 5E3 IgG1; IHA variant
B2: hu5E3-IgG2 (antibody, V domains shown)
VH: B1 VH
VL: B1 VL
notes: human IgG2/kappa; also called humanized 5E3 IgG2
B3: murine monoclonal antibody 5E3 (antibody, V domains shown)
VH: B1 VH with V11L, K12V, K19R, A40R, E82Q, S85R, T91S, V112L
VL: B1 VL with V15L, D17E, T20S, I21L, E41D, A43T, Q79E, P80S, T85D
notes: mouse antibody of the 5E3 hybridoma; also called murine 5E3; m5E3
B4: rehu5E3-IgG4 (antibody, V domains shown)
VH: B1 VH with K12V, T87R, T91S, T111L
VL: B1 VL with V15L, I21L, G42K, S72T, T85D
notes: human IgG4/kappa; also called IgG4 rehu version

Columns and labels:
cSNK:BSA conjugate [1] = target: T1, cSNK:BSA conjugate (bovine, head-to-tail cyclized; conjugated to BSA carrier); assay: BLI 2:1 fit, site 2 (KD2); 50 nM row
T1 construct: also called BSA-cSNK
T1 sequence (P02769 25-607 limits assumed): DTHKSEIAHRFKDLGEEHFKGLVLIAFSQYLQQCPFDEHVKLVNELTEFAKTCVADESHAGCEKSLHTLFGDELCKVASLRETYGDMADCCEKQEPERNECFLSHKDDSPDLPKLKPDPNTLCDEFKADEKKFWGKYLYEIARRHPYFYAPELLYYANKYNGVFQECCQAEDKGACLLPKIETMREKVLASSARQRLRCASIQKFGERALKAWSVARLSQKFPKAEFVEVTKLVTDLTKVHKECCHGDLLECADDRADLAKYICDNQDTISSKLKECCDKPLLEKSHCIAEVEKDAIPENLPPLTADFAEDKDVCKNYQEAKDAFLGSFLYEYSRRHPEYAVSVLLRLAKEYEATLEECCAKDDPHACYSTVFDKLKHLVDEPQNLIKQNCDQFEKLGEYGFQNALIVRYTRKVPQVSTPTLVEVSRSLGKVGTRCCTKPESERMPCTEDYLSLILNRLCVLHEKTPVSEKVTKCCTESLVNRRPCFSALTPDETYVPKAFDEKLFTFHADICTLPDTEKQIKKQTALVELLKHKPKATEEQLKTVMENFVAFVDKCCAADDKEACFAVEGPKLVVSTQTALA
Description: (§1) Biolayer interferometry (Octet […], ForteBio) was used to qualitatively/quantitatively assess the interactions between humanized versions of 5E3 and cSNK:BSA conjugate. […] MAbs were loaded onto sensors and then washed in PBST. Each sensor was associated with one of several cSNK:BSA standards (100 nM to 0 nM) and then washed in PBST. Data was processed statistically using ForteBio Data Analysis software to determine the strength of antigen-antibody binding (KD). For each mAb analyzed, a 2:1 model provided the “best fit”.

cSNK:BSA conjugate [2] = target: T1, cSNK:BSA conjugate; assay: BLI 2:1 fit, site 2 (kon2); 3.13 nM row
Description: as §1

cSNK:BSA conjugate [3] = target: T1, cSNK:BSA conjugate; assay: BLI 2:1 fit, site 2 (kon2); 25 nM row
Description: as §1

cSNK:BSA conjugate [4] = target: T1, cSNK:BSA conjugate; assay: BLI 2:1 fit, site 2 (kdis2); 6.25 nM row
Description: as §1

cSNK:BSA conjugate [5] = target: T1, cSNK:BSA conjugate; assay: BLI 2:1 fit, site 2 (kon2); 12.5 nM row
Description: as §1

cSNK:BSA conjugate [6] = target: T1, cSNK:BSA conjugate; assay: BLI 2:1 fit, site 1; 12.5 nM row
Description: as §1

cSNK:BSA conjugate [7] = target: T1, cSNK:BSA conjugate; assay: BLI 2:1 fit, site 1; 1.56 nM row
Description: as §1

cSNK:BSA conjugate [8] = target: T1, cSNK:BSA conjugate; assay: BLI 2:1 fit, site 2 (KD2); 6.25 nM row
Description: as §1

cSNK:BSA conjugate [9] = target: T1, cSNK:BSA conjugate; assay: BLI (Octet), 1:1 model, BSA-cSNK
Description: Biolayer interferometry (Octet Red92, ForteBio) was used to qualitatively/quantitatively assess the interactions between humanized 5E3 and Δ5E3 mAbs to the cSNK:BSA conjugate. […] MAbs were loaded onto sensors and then washed in PBST. Each sensor was associated with one of several cSNK:BSA standards (100 nM to 0 nM) and then washed in PBST. Data was processed statistically using ForteBio Data Analysis software to determine the strength of antigen-antibody binding (KD). For each mAb analyzed, a 1:1 model provided the “best fit”.

cSNK:BSA conjugate [10] = target: T1, cSNK:BSA conjugate; assay: BLI 2:1 fit, site 2 (kdis2); 50 nM row
Description: as §1

cSNK:BSA conjugate [11] = target: T1, cSNK:BSA conjugate; assay: BLI (Octet RED96), 2:1 kinetics, KD1, summary table
Description: as §1
(§2) Table 7 summarizes the affinity constants of humanized 5E3 IgG1, IgG2 and IgG4 constructs. The KD ranges were determined using 2:1 kinetics of binding of analyte (BSA-cSNK) in solution to two different binding sites on the surface (immobilized bivalent, monospecific 5E3) in comparison to murine 5E3 using biolayer interferometry (Octet RED96).

cSNK:BSA conjugate [12] = target: T1, cSNK:BSA conjugate; assay: BLI 2:1 fit, site 2 (kon2); 50 nM row
Description: as §1

cSNK:BSA conjugate [13] = target: T1, cSNK:BSA conjugate; assay: BLI 2:1 fit, site 2 (KD2); 12.5 nM row
Description: as §1

cSNK:BSA conjugate [14] = target: T1, cSNK:BSA conjugate; assay: BLI 2:1 fit, site 1; 25 nM row
Description: as §1

cSNK:BSA conjugate [15] = target: T1, cSNK:BSA conjugate; assay: BLI (Octet RED96), 2:1 kinetics, KD2, summary table
Description: as §1, §2

cSNK:BSA conjugate [16] = target: T1, cSNK:BSA conjugate; assay: BLI 2:1 fit, site 2 (KD2); 25 nM row
Description: as §1

cSNK:BSA conjugate [17] = target: T1, cSNK:BSA conjugate; assay: BLI 2:1 fit, site 2 (kdis2); 3.13 nM row
Description: as §1

cSNK:BSA conjugate [18] = target: T1, cSNK:BSA conjugate; assay: BLI 2:1 fit, site 2 (kdis2); 1.56 nM row
Description: as §1

cSNK:BSA conjugate [19] = target: T1, cSNK:BSA conjugate; assay: BLI 2:1 fit, site 1; 6.25 nM row
Description: as §1

cSNK:BSA conjugate [20] = target: T1, cSNK:BSA conjugate; assay: BLI 2:1 fit, site 2 (kon2); 6.25 nM row
Description: as §1

cSNK:BSA conjugate [21] = target: T1, cSNK:BSA conjugate; assay: BLI 2:1 fit, site 2 (kon2); 1.56 nM row
Description: as §1

cSNK:BSA conjugate [22] = target: T1, cSNK:BSA conjugate; assay: BLI 2:1 fit, site 2 (kdis2); 12.5 nM row
Description: as §1

cSNK:BSA conjugate [23] = target: T1, cSNK:BSA conjugate; assay: BLI 2:1 fit, site 2 (kon2); 100 nM row
Description: as §1

cSNK:BSA conjugate [24] = target: T1, cSNK:BSA conjugate; assay: BLI 2:1 fit, site 1; 100 nM row
Description: as §1

cSNK:BSA conjugate [25] = target: T1, cSNK:BSA conjugate; assay: BLI 2:1 fit, site 2 (KD2); 100 nM row
Description: as §1

Row | Binder | Kd (cSNK:BSA conjugate [1]) | kon (cSNK:BSA conjugate [2]) | kon (cSNK:BSA conjugate [3]) | koff (cSNK:BSA conjugate [4]) | kon (cSNK:BSA conjugate [5]) | koff (cSNK:BSA conjugate [6]) | kon (cSNK:BSA conjugate [6]) | Kd (cSNK:BSA conjugate [8]) | koff (cSNK:BSA conjugate [10]) | Kd (cSNK:BSA conjugate [11]) | kon (cSNK:BSA conjugate [12]) | Kd (cSNK:BSA conjugate [13]) | koff (cSNK:BSA conjugate [14]) | kon (cSNK:BSA conjugate [14]) | Kd (cSNK:BSA conjugate [16]) | koff (cSNK:BSA conjugate [17]) | koff (cSNK:BSA conjugate [19]) | kon (cSNK:BSA conjugate [19]) | kon (cSNK:BSA conjugate [20]) | koff (cSNK:BSA conjugate [22]) | also measured
1 | B1 | 1.82 nM | 6.56e+06 M⁻¹ s⁻¹ | 6.56e+06 M⁻¹ s⁻¹ | 0.012 s⁻¹ | 6.56e+06 M⁻¹ s⁻¹ | 0.000825 s⁻¹ | 1.78e+06 M⁻¹ s⁻¹ | 1.82 nM | 0.012 s⁻¹ | 0.463 nM | 6.56e+06 M⁻¹ s⁻¹ | 1.82 nM | 0.000825 s⁻¹ | 1.78e+06 M⁻¹ s⁻¹ | 1.82 nM | 0.012 s⁻¹ | 0.000825 s⁻¹ | 1.78e+06 M⁻¹ s⁻¹ | 6.56e+06 M⁻¹ s⁻¹ | 0.012 s⁻¹ | Kd (cSNK:BSA conjugate [6]): 0.463 nM; Kd (cSNK:BSA conjugate [7]): 0.463 nM; koff (cSNK:BSA conjugate [7]): 0.000825 s⁻¹; kon (cSNK:BSA conjugate [7]): 1.78e+06 M⁻¹ s⁻¹; Kd (cSNK:BSA conjugate [9]): 2.01 nM; Kd (cSNK:BSA conjugate [14]): 0.463 nM; Kd (cSNK:BSA conjugate [15]): 0.182 nM; koff (cSNK:BSA conjugate [18]): 0.012 s⁻¹; Kd (cSNK:BSA conjugate [19]): 0.463 nM; kon (cSNK:BSA conjugate [21]): 6.56e+06 M⁻¹ s⁻¹
2 | B2 | 6.39 nM | 5.28e+06 M⁻¹ s⁻¹ | 5.28e+06 M⁻¹ s⁻¹ | 0.0338 s⁻¹ | 5.28e+06 M⁻¹ s⁻¹ | 0.000762 s⁻¹ | 644000 M⁻¹ s⁻¹ | 6.39 nM | 0.0338 s⁻¹ | 1.18 nM | 5.28e+06 M⁻¹ s⁻¹ | 6.39 nM | 0.000762 s⁻¹ | 644000 M⁻¹ s⁻¹ | 6.39 nM | 0.0338 s⁻¹ | 0.000762 s⁻¹ | 644000 M⁻¹ s⁻¹ | 5.28e+06 M⁻¹ s⁻¹ | 0.0338 s⁻¹ | Kd (cSNK:BSA conjugate [6]): 1.18 nM; Kd (cSNK:BSA conjugate [9]): 0.326 nM; Kd (cSNK:BSA conjugate [14]): 1.18 nM; Kd (cSNK:BSA conjugate [15]): 6.39 nM; Kd (cSNK:BSA conjugate [19]): 1.18 nM; kon (cSNK:BSA conjugate [23]): 5.28e+06 M⁻¹ s⁻¹; Kd (cSNK:BSA conjugate [24]): 1.18 nM; koff (cSNK:BSA conjugate [24]): 0.000762 s⁻¹; kon (cSNK:BSA conjugate [24]): 644000 M⁻¹ s⁻¹; Kd (cSNK:BSA conjugate [25]): 6.39 nM
3 | B3 | 1.59 nM | 1.42e+07 M⁻¹ s⁻¹ | 1.42e+07 M⁻¹ s⁻¹ | 0.0226 s⁻¹ | 1.42e+07 M⁻¹ s⁻¹ | 0.000428 s⁻¹ | 1.29e+06 M⁻¹ s⁻¹ | 1.59 nM | 0.0226 s⁻¹ | 0.33 nM | 1.42e+07 M⁻¹ s⁻¹ | 1.59 nM | 0.000428 s⁻¹ | 1.29e+06 M⁻¹ s⁻¹ | 1.59 nM | 0.0226 s⁻¹ | 0.000428 s⁻¹ | 1.29e+06 M⁻¹ s⁻¹ | 1.42e+07 M⁻¹ s⁻¹ | 0.0226 s⁻¹ | Kd (cSNK:BSA conjugate [6]): 0.33 nM; Kd (cSNK:BSA conjugate [7]): 0.33 nM; koff (cSNK:BSA conjugate [7]): 0.000428 s⁻¹; kon (cSNK:BSA conjugate [7]): 1.29e+06 M⁻¹ s⁻¹; Kd (cSNK:BSA conjugate [14]): 0.33 nM; koff (cSNK:BSA conjugate [18]): 0.0226 s⁻¹; Kd (cSNK:BSA conjugate [19]): 0.33 nM; kon (cSNK:BSA conjugate [23]): 1.42e+07 M⁻¹ s⁻¹; kon (cSNK:BSA conjugate [21]): 1.42e+07 M⁻¹ s⁻¹; Kd (cSNK:BSA conjugate [24]): 0.33 nM; koff (cSNK:BSA conjugate [24]): 0.000428 s⁻¹; kon (cSNK:BSA conjugate [24]): 1.29e+06 M⁻¹ s⁻¹; Kd (cSNK:BSA conjugate [25]): 1.59 nM
4 | B4 | 3.94 nM | 4.44e+06 M⁻¹ s⁻¹ | 4.44e+06 M⁻¹ s⁻¹ | 0.0175 s⁻¹ | 4.44e+06 M⁻¹ s⁻¹ | 0.000386 s⁻¹ | 692000 M⁻¹ s⁻¹ | 3.94 nM | 0.0175 s⁻¹ | 0.557 nM | 4.44e+06 M⁻¹ s⁻¹ | 3.94 nM | 0.000386 s⁻¹ | 692000 M⁻¹ s⁻¹ | 3.94 nM | 0.0175 s⁻¹ | 0.000386 s⁻¹ | 692000 M⁻¹ s⁻¹ | 4.44e+06 M⁻¹ s⁻¹ | 0.0175 s⁻¹ | koff (cSNK:BSA conjugate [7]): 0.000386 s⁻¹; kon (cSNK:BSA conjugate [7]): 692000 M⁻¹ s⁻¹; Kd (cSNK:BSA conjugate [15]): 0.394 nM; koff (cSNK:BSA conjugate [18]): 0.0175 s⁻¹; kon (cSNK:BSA conjugate [23]): 4.44e+06 M⁻¹ s⁻¹; kon (cSNK:BSA conjugate [21]): 4.44e+06 M⁻¹ s⁻¹; koff (cSNK:BSA conjugate [24]): 0.000386 s⁻¹; kon (cSNK:BSA conjugate [24]): 692000 M⁻¹ s⁻¹; Kd (cSNK:BSA conjugate [25]): 3.94 nM
